Assay results taken from paper PMC8191759.

What was measured:
Test in all cases: cross-linking
NSP8 F92A (SARS-CoV-2) = biological target: NSP8 F92A (SARS-CoV-2)
NSP8 M90A (SARS-CoV-2) = biological target: NSP8 M90A (SARS-CoV-2)
NSP8 M94A (SARS-CoV-2) = biological target: NSP8 M94A (SARS-CoV-2)

NSP8 F92A (natural protein) gave a stoichiometry N (NSP8 F92A (SARS-CoV-2)) of 2.
Substance NSP8 M90A (natural protein) has a stoichiometry N (NSP8 M90A (SARS-CoV-2)) of 2.
With NSP8 M94A (natural protein) the stoichiometry N (NSP8 M94A (SARS-CoV-2)) was 2.
